Data from article PMC9274624.

Tests used:
[1] = target: bovine ACE2 extracellular domain (residues 1-740) fused with the Fc domain of mouse IgG (bovine) (UniProt Q58DD0); experiment: SPR
[2] = target: cat ACE2 extracellular domain (residues 1-740) fused with the Fc domain of mouse IgG (cat) (UniProt Q56H28); experiment: SPR
Sequence of UniProt Q56H28 (Q56H28 18-740): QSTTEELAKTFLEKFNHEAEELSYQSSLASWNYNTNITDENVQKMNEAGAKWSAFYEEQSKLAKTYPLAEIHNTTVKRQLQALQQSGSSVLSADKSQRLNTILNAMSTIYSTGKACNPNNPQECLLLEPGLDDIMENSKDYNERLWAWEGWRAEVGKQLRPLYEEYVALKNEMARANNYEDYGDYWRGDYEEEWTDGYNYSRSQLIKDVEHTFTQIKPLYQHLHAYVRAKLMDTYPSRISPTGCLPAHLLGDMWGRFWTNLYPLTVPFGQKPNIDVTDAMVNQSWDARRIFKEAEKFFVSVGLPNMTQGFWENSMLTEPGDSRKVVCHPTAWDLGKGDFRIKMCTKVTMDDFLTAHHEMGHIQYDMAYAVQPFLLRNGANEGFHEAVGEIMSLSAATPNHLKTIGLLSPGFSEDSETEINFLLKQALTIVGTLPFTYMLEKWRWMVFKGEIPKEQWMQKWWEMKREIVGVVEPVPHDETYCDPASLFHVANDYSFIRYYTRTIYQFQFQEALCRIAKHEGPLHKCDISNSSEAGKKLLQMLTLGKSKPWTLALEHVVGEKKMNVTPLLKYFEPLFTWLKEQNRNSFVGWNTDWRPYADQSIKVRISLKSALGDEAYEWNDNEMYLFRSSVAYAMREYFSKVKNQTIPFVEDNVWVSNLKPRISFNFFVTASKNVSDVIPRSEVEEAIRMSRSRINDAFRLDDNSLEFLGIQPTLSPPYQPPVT

Sequence of UniProt Q58DD0 (Q58DD0 18-740): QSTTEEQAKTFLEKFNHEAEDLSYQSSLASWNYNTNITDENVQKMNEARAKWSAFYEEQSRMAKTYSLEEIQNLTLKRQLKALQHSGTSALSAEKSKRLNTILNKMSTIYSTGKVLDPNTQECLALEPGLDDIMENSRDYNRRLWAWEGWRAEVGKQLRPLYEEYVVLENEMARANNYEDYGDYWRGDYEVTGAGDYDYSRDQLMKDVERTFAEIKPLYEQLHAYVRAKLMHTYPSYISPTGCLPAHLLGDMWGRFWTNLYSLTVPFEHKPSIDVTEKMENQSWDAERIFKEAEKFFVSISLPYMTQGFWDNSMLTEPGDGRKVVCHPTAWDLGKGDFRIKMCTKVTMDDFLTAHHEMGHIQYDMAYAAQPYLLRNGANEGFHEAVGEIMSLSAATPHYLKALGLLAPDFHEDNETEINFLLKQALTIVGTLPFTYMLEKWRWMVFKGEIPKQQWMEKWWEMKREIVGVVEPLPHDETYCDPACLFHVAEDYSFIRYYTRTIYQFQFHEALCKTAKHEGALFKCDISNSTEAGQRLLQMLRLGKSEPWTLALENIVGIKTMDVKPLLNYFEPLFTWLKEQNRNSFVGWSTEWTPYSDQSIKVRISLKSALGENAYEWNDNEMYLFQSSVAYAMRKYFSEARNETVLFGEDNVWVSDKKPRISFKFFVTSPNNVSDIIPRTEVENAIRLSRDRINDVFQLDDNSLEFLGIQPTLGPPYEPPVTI

SARS-CoV-2 Delta RBD (residues 319-541) (from UniProt P0DTC2 319-541) (domain or fragment)
Kd [1]: 71.3 nM | Kd [2]: 53.4 nM
